Assay results reported in article doi:10.1101/2022.09.01.506260 (bioRxiv, 2022).
Square brackets hold non-standard residues; d marks the D form. pT = C[C@@H](OP(=O)(O)O)[C@H](N)C(=O)O; pS = N[C@@H](COP(=O)(O)O)C(=O)O

T1: human 14-3-3ε (human, UniProt P62258-1 1-255)
T1 sequence: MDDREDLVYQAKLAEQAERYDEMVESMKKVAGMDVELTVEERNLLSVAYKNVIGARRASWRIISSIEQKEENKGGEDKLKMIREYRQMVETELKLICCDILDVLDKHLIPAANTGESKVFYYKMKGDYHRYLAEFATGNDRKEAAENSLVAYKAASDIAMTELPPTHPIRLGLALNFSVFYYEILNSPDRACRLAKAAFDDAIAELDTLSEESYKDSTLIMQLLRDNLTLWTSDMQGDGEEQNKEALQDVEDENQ

B1: CrkII SH2 domain (CrkII^SH2) (domain or fragment)
chain: DSEERSSWYWGRLSRQEAVALLQGQRHGVFLVRDSSTSPGDYVLSVSENSRVSHYIINSSGPRPPVPPSPAQPPPGVSPSRLRIGDQEFDSLPALLEFYKIHYLDTTTLIEPVSR
B2: PEAK3^tandem peptide, non-phosphorylated (residues 54-74) (peptide)
peptide: Ac-PLPPPLPKKILTRTQSLPTRR-NH2
B3: PEAK2 709-721 proline-rich motif peptide (peptide)
peptide: Ac-FSPPPPPPKSRHL-NH2
B4: PEAK2 809-821 proline-rich motif peptide (peptide)
peptide: Ac-QPPPLPQKKIVSR-NH2
B5: PEAK3^tandem-pS69 phosphopeptide (residues 54-74) (peptide)
peptide: Ac-PLPPPLPKKILTRTQ[pS]LPTRR-NH2
B6: PEAK3 54-66 proline-rich motif peptide (peptide)
peptide: Ac-PLPPPLPKKILTR-NH2
B7: CrkII NSH3 domain (CrkII^NSH3) (domain or fragment)
chain: AEYVRALFDFNGNDEEDLPFKKGDILRIRDKPEEQWWNAEDSEGKRGMIPVPYVEKYR
B8: full length recombinant PEAK3 (PEAK3^FL) from insect cells (natural protein)
chain: MSSPEPPTEPPEPDNPTWSTQPTYSNLGQIRAHLLPSKACRLRTPGSLSTNPEPLPPPLPKKILTRTQSLPTRRTLHPSSIQVQPPRRPFLGSHSVDKSQAAVGPACLPAELTFGPADAPLGLSLRDLHSPEAVHTALAARQLQGLRTIYARLRARLMGGHPGPCHPGHSFRLLDSSPCAESGDALYYRVVRAHEDAWHILVAKVPKPGADVPHPWGLELQASLSPHFNLQGLCGLVPEGTLPGAPWRGAVALAAEVPERTVAQWLAEACTQPPEEFVWAVALLLLQLSAALKFLEAWGAALVELRPENLLLVAPRGCATTGPPRLLLTDFGRVCLQPPGPPGSPGPHAPQLGSLLRALLSLAAPSTTPLAAGLELLAAQLTRLRPSASRTRGALQALLWGPGPELRGRGAPLGPWLRALGPWLRVRRGLLVLRLAERAAGGEAPSLEDWLCCEYLAEATESSMGQALALLWD
modifications: phosphoserine at 69 (pS69)
B9: CrkII SH2-NSH3 construct lacking the CSH3 domain (CrkII^ΔCSH3) (domain or fragment)
chain: MAGNFDSEERSSWYWGRLSRQEAVALLQGQRHGVFLVRDSSTSPGDYVLSVSENSRVSHYIINSSGPRPPVPPSPAQPPPGVSPSRLRIGDQEFDSLPALLEFYKIHYLDTTTLIEPVSRSRQGSGVILRQEEAEYVRALFDFNGNDEEDLPFKKGDILRIRDKPEEQWWNAEDSEGKRGMIPVPYVEKYRPASASVSALIGGNQEGSHPQPLGGPEPGPYAQPSVNT
B10: PEAK1^IDR1 (N-terminally truncated PEAK1, residues 1082-1746) (domain or fragment)
chain: LPELEREDGKEDISDPMDPNPCSATYSNLGQSRAAMIPPKQPRQPKGAVDDAIAFGGKTDQEAPNASQPTPPPLPKKMIIRANTEPISKDLQKSMESSLCVMANPTYDIDPNWDASSAGSSISYELKGLDIESYDSLERPLRKERPVPSAANSISSLTTLSIKDRFSNSMESLSSRRGPSCRQGRGIQKPQRQALYRGLENREEVVGKIRSLHTDALKKLAVKCEDLFMAGQKDQLRFGVDSWSDFRLTSDKPCCEAGDAVYYTASYAKDPLNNYAVKICKSKAKESQQYYHSLAVRQSLAVHFNIQQDCGHFLAEVPNRLLPWEDPDDPEKDEDDMEETEEDAKGETDGKNPKPCSEAASSQKENQGVMSKKQRSHVVVITREVPCLTVADFVRDSLAQHGKSPDLYERQVCLLLLQLCSGLEHLKPYHVTHCDLRLENLLLVHYQPGGTAQGFGPAEPSPTSSYPTRLIVSNFSQAKQKSHLVDPEILRDQSRLAPEIITATQYKKCDEFQTGILIYEMLHLPNPFDENPELKEREYTRADLPRIPFRSPYSRGLQQLASCLLNPNPSERILISDAKGILQCLLWGPREDLFQTFTACPSLVQRNTLLQNWLDIKRTLLMIKFAEKSLDREGGISLEDWLCAQYLAFATTDSLSCIVKILQHR
B11: PEAK2^IDR1 (N-terminally truncated PEAK2, residues 802-1406) (domain or fragment)
chain: EDVSPSGPQQPPPLPQKKIVSRAASSPDGFFWTQGSPKPGTASPKLNLSHSETNVHDESHFSYSLSPGNRHHPVFSSSDPLEKAFKGSGHWLPAAGLAGNRGGCGSPGLQCKGAPSASSSQLSVSSQASTGSTQLQLHGLLSNISSKEGTYAKLGGLYTQSLARLVAKCEDLFMGGQKKELHFNENNWSLFKLTCNKPCCDSGDAIYYCATCSEDPGSTYAVKICKAPEPKTVSYCSPSVPVHFNIQQDCGHFVASVPSSMLSSPDAPKDPVPALPTHPPAQEQDCVVVITREVPHQTASDFVRDSAASHQAEPEAYERRVCFLLLQLCNGLEHLKEHGIIHRDLCLENLLLVHCTLQAGPGPAPAPAPAPAPAAAAPPCSSAAPPAGGTLSPAAGPASPEGPREKQLPRLIISNFLKAKQKPGGTPNLQQKKSQARLAPEIVSASQYRKFDEFQTGILIYELLHQPNPFEVRAQLRERDYRQEDLPPLPALSLYSPGLQQLAHLLLEADPIKRIRIGEAKRVLQCLLWGPRRELVQQPGTSEEALCGTLHNWIDMKRALMMMKFAEKAVDRRRGVELEDWLCCQYLASAEPGALLQSLKLLQLL
modifications: phosphorylation of the tandem site 14-3-3 motif (RAASSP, first S of SS underlined) found by proteomic analysis
B12: PEAK1 1150-1162 proline-rich motif peptide (peptide)
peptide: Ac-PTPPPLPKKMIIR-NH2
B13: PEAK2^tandem-pS826 phosphopeptide (residues 812-831) (peptide)
peptide: Ac-PPPLPQKKIVSRAA[pS]SPDGF-NH2
B14: PEAK1^tandem-pT1165 phosphopeptide (residues 1152-1171) (peptide)
peptide: Ac-PPPLPKKMIIRAN[pT]EPISKD-NH2

Columns and labels:
SEC [1] = target: the molecule itself; experiment: SEC
[2] = target: B7; experiment: SPR
human 14-3-3ε = target: T1, human 14-3-3ε; experiment: SPR
[3] = target: B2; experiment: ITC
SEC-MALS = target: the molecule itself; experiment: SEC-MALS
SEC [4] = target: the molecule itself; experiment: SEC; remark: listed apart in the source

## B1
SEC [1]
  stoichiometry N: 2

## B2
[2]
  Kd: 600 nM

## B3
[2]
  Kd: 13000 nM

## B4
[2]
  binding result: binds

## B5
Human 14-3-3ε
  binding result: binds

## B6
[2]
  binding result: binds

## B7
[3]
  KD after pre-saturating the peptide with 14-3-3ɣ: 700 nM

## B8
SEC-MALS
  stoichiometry N: 2

## B9
SEC [1]
  stoichiometry N: 2

## B10
SEC [4]
  stoichiometry N: 2

## B11
SEC [4]
  stoichiometry N: 2

## B12
[2]
  binding result: binds

## B13
Human 14-3-3ε
  binding result: binds

## B14
Human 14-3-3ε
  binding result: binds
